Measurements reported in the RNAGym collection of RNA variant scans (doi:10.7554/elife.80360).

B1: HDV Ribozyme (parent)
chain: GGCCGGCAUGGUCCCAGCCUCCUCGCUGGCGCCGGCUGGGCAACAUUCCGAGGGGACCGUCCCCUCGGUAAUGGCGAAUGGGACCCA

Variants of: B1
Assay: self-cleavage, relative activity (ratio to wild type); higher = more cleavage; co-transcriptional

Variant | self-cleavage
GGCCGGCAUCGUCCCAGCCUCCUCGCUGGCGCCGGCUGGGCAACGUUCCGAGGGGACCGUCCCCUCGGUAAUGGCGAAUGGGACCCA [G10C A45G] | 0.791
GGCCGGCAUAGUCCCAGCCUCCUCGCUGGCGCCGGCUGGGCAACAUUCCGAGGGGACCCUCCCCUCGGUAAUGGCGAAUGGGACCCA [G10A G59C] | 0.684
GGCCGGCAUAGUCCCAGCCUCCUCGCUGGCGCCGGCUGGGCAACAUUCCGAGGGGACCAUCCCCUCGGUAAUGGCGAAUGGGACCCA [G10A G59A] | 0.853
GGCCGGCAUAGUCCCAGCCUCCUCGCUGGCGCCGGCUGGGCAACAUUCCGAGGGGACCGGCCCCUCGGUAAUGGCGAAUGGGACCCA [G10A U60G] | 0.748
GGCCGGCAUCGUCCCAGCCUCCUCGCUGGCGCCGGCUGGGCAACAUUCCGAGGGGACCGUCCCCUCGGUAAUGGCGAAUGGGACCCA [G10C] | 0.935
GGCCGGCAUCGUCCCAGCCUCCUCGCUGGCGCCGGCUGGGCCACAUUCCGAGGGGACCGUCCCCUCGGUAAUGGCGAAUGGGACCCA [G10C A42C] | 0.142
GGCCGGCAUAGUCCCAGCCUCCUCGCUGGCGCCGGCUGGGCAACAUUCCGAGGGGACCGUCCCCUCGGUAAUGGCGAAUCGGACCCA [G10A G80C] | 0.131
GGCCGGCAUAGUCCCAGCCUCCUCGCUGGCGCCGGCUGGGCAACAUUCCGAGGGGACCGUCCCCUCGGUAAUGGCGAAUAGGACCCA [G10A G80A] | 0.11
GGCCGGCAUAGUCCCAGCCUCCUCGCUGGCGCCGGCUGGGCAACAUUCCGAGGGGACCGUCCCCUCGGUAAUGGCGAAUUGGACCCA [G10A G80U] | 0.145
GGCCGGCAUAGUCCCAGCCUCCUCGCUGGCGCCGGCUGGGCAACAUUCCGAGGGGACCGUCCCCUCGGUAAUGUCGAAUGGGACCCA [G10A G74U] | 0.257
GGCCGGCAUAGUCCCAGCCUCCUCGCUGGCGCCGGCUGGGCAACAUUCCGAGGGGACCGUCCCCUCGGUAAUGACGAAUGGGACCCA [G10A G74A] | 0.101
GGCCGGCAUAGUCCCAGCCUCCUCGCUGGCGCCGGCUGGGCAACAUCCCGAGGGGACCGUCCCCUCGGUAAUGGCGAAUGGGACCCA [G10A U47C] | 0.554
GGCCGGCAUAGUCCCAGCCUCCUCGCUGGCGCCGGCUGGGCAACAUACCGAGGGGACCGUCCCCUCGGUAAUGGCGAAUGGGACCCA [G10A U47A] | 0.665
GGCCGGCAUCGUCCCAGCCUCCUCGCUGGCGCCGGCUGGGCAACAUUCCGAGGGGACCGUCCCCUCGGUACUGGCGAAUGGGACCCA [G10C A71C] | 0.802
GGCCGGCAUCGUCCCAGCCUCCUCGCUGGCGCCGGCUGGGCAACAUUCCGAGGGGACCGUCCCCUCGGUAGUGGCGAAUGGGACCCA [G10C A71G] | 0.906
GGCCGGCAUCGUCCCAGCCUCCUCGCUGGCGCCGGCUGGGCAACAUUCCGAGGGGACCGUCCCCUCGGUAUUGGCGAAUGGGACCCA [G10C A71U] | 0.767
GGCCGGCAUAGUCCCAGCCACCUCGCUGGCGCCGGCUGGGCAACAUUCCGAGGGGACCGUCCCCUCGGUAAUGGCGAAUGGGACCCA [G10A U20A] | 0.0831
GGCCGGCAUAGUCCCAGCCUCCUCGCUGGCGCCGGCUGGGCAACAUUCCGAGGGGACCGUCCCCUCGGGAAUGGCGAAUGGGACCCA [G10A U69G] | 0.554
GGCCGGCAUAGUCCCAGCCUCCUCGCUGGCGCCGGCUGGGCAACAUUCCGAGGGGACCGUCCCCUCGGAAAUGGCGAAUGGGACCCA [G10A U69A] | 0.677
GGCCGGCAUAGUCCCAGCCUCCUCGCUGGCGCCGGCUGUGCAACAUUCCGAGGGGACCGUCCCCUCGGUAAUGGCGAAUGGGACCCA [G10A G39U] | 0.293
GGCCGGCAUCGUCCCAGCCUCCUCGCUGGCGCCGGCUGGGCAACAUUCCGAGGGGACCGUCCCCUCGGUAAUGGCGAAUGGGUCCCA [G10C A83U] | 0.465
GGCCGGCAUCGUCCCAGCCUCCUCGCUGGCGCCGGCUGGGCAACAUUCCGAGGGGACCGUCCCCUCGGUAAUGGCGAAUGGGCCCCA [G10C A83C] | 0.0615

Variant | self-cleavage
GGCCGGCAUAGUCCCAGCCUCCUCGCUGGCGCCGGCUGGGCAACAUUCCGAGGGGACCGUCCCCUCGGUAAUGGCGAAUGUGACCCA [G10A G81U] | 0.0468
GGCCGGCAUAGUCCCAGCCUCCUCGCUGGCGCCGGCUGGGCAACAUUCCGAGGGGACCGUCCCCUCGGUAAUGGCGAAUGAGACCCA [G10A G81A] | 0.187
GGCCGGCAUAGUCCCAGCCUCCUCGCUGGCGCCGGCUGGGCAACAUUCCGAGGGGACCGUCCCCUCGGUAAUGGCGAAUGCGACCCA [G10A G81C] | 0.22
GGCCGGCAUAGUCCCAGCCUCCUCGCUGGCGCCGGCUGGGCAACAUUCCGAGGGGACCGUCCCCUCGCUAAUGGCGAAUGGGACCCA [G10A G68C] | 0.453
GGCCGGCAUAGUCCCAGCCUCCUCGCUGGCGCCGGCUGGGCAACAUUCCGAGGGGACCGUCCCCUCGUUAAUGGCGAAUGGGACCCA [G10A G68U] | 0.562
GGCCGGCAUAGUCCCAGCCUCCUCGCUGGCGCCGGCUGGGCAACAUUCCGAGGGGACCGUCCCCUCGAUAAUGGCGAAUGGGACCCA [G10A G68A] | 0.604
GGCCGGCAUAGUCCCAGCCUCCUCGCUGGCGCCGGCUGGGCAACACUCCGAGGGGACCGUCCCCUCGGUAAUGGCGAAUGGGACCCA [G10A U46C] | 0.397
GGCCGGCAUAGUCCCAGCCUCCUCGCUGGCGCCGGCUGGGCAACAAUCCGAGGGGACCGUCCCCUCGGUAAUGGCGAAUGGGACCCA [G10A U46A] | 0.506
GGCCGGCAUCGUCCCAGCCUCCUCGCUGGCGCCGGCUGGGCAACAUUCCGAGGGGCCCGUCCCCUCGGUAAUGGCGAAUGGGACCCA [G10C A56C] | 0.978
GGCCGGCAUAGUCCCAGCCUCCUCGCUGGCGCCGGCUGGGCAACAUUCCGAGGGGACCGUCCCCUCGGUAAUGGCGAACGGGACCCA [G10A U79C] | 0.0882
GGCCGGCAUAGUCCCAGCCUCCUCGCUGGCGCCGGCUGGGCAACAUUCCGAGGGGACCGUCCCCUCGGUAAUGGCGAAAGGGACCCA [G10A U79A] | 0.302
GGCCGGCAUCGUCCCCGCCUCCUCGCUGGCGCCGGCUGGGCAACAUUCCGAGGGGACCGUCCCCUCGGUAAUGGCGAAUGGGACCCA [G10C A16C] | 0.88
GGCCGGCAUAGUCCCAGCCUCCUCGCUGGCGCCGGCUGGGCAACAUUCCGAGGGGACCGUCCCCUCGGUAAUGGCGAAUGGAACCCA [G10A G82A] | 0.176
GGCCGGCAUAGUCCCAGCCUCCUCGCUGGCGCCGGCUGGGCAACAUUCCGAGGGGACCGUCCCCUCGGUAAUGGCGAAUGGUACCCA [G10A G82U] | 0.36
GGCCGGCAUCGUCCCAGCCUCCUCGCUGGCGCCGGCUGGGCAACAUUCCGUGGGGACCGUCCCCUCGGUAAUGGCGAAUGGGACCCA [G10C A51U] | 0.923
GGCCGGCAUCGUCCCAGCCUCCUCGCUGGCGCCGGCUGGGCAACAUUCCGGGGGGACCGUCCCCUCGGUAAUGGCGAAUGGGACCCA [G10C A51G] | 0.72
GGCCGGCAUAGUCCCAGCCUCCUCGCUGGCGCCGGCUGGGCAACAUUCCUAGGGGACCGUCCCCUCGGUAAUGGCGAAUGGGACCCA [G10A G50U] | 0.67
GGCCGGCAUAGUCCCAGCCUCCUCGCUGGCGCCGGCAGGGCAACAUUCCGAGGGGACCGUCCCCUCGGUAAUGGCGAAUGGGACCCA [G10A U37A] | 0.0944
GGCCGGCAUAGUCCCAGCCUCCUCGCUGGCGCCGGCCGGGCAACAUUCCGAGGGGACCGUCCCCUCGGUAAUGGCGAAUGGGACCCA [G10A U37C] | 0.695
GGCCGGCAUAGUCCCAGCCUCCUCGCUGGCGCCGGCGGGGCAACAUUCCGAGGGGACCGUCCCCUCGGUAAUGGCGAAUGGGACCCA [G10A U37G] | 0.198
GGCCGGCAUCGUCCCAGCCUCCUCGCUGGCGCCGGCUGGGCAACAUUCCGAGGGGACCGUCCCCUCGGUUAUGGCGAAUGGGACCCA [G10C A70U] | 0.65
GGCCGGCAUAGUCCCAGCCUCCUCGCUGGCGCCGGCUGGGCAACAUUCCGAGGGGACCGUCCCCUCGGUAAUCGCGAAUGGGACCCA [G10A G73C] | 0.19

Variant | self-cleavage
GGCCGGCAUAGUCCCAGCCUCCUCGCUGGCGCCGGCUGGGCAACAUUCCGAUGGGACCGUCCCCUCGGUAAUGGCGAAUGGGACCCA [G10A G52U] | 0.838
GGCCGGCAUAGUCCCAGCCUCCUCGCUGGCGCCGGCUGGGCAACAUUCCGACGGGACCGUCCCCUCGGUAAUGGCGAAUGGGACCCA [G10A G52C] | 0.812
GGCCGGCAUCGUCCCAGCCUCCUCGCUGGCGCCGGCUGGGCAACAUUCCGAGGGGACCGUCCCCUCGGUAAUGGCGUAUGGGACCCA [G10C A77U] | 0.0554
GGCCGGCAUCGUCCCAGCCUCCUCGCUGGCGCCGGCUGGGCAACAUUCCGAGGGGACCGUCCCCUCGGUAAUGGCGCAUGGGACCCA [G10C A77C] | 0.208
GGCCGGCAUCGUCCCAGCCUCCUCGCUGGCGCCGGCUGGGCAUCAUUCCGAGGGGACCGUCCCCUCGGUAAUGGCGAAUGGGACCCA [G10C A43U] | 0.415
GGCCGGCAUCGUCCCAGCCUCCUCGCUGGCGCCGGCUGGGCACCAUUCCGAGGGGACCGUCCCCUCGGUAAUGGCGAAUGGGACCCA [G10C A43C] | 0.219
GGCCGGCAUCGUCCCAGCCUCCUCGCUGGCGCCGGCUGGGCAGCAUUCCGAGGGGACCGUCCCCUCGGUAAUGGCGAAUGGGACCCA [G10C A43G] | 0.317
GGCCGGCAUCGUCCCAGCCUCCUCGCUGGCGCCGGCUGGGCAACAUUCCGAGGGGACCGUCCCCUCGGUAAUGGCGAGUGGGACCCA [G10C A78G] | 0.399
GGCCGGCAUAGACCCAGCCUCCUCGCUGGCGCCGGCUGGGCAACAUUCCGAGGGGACCGUCCCCUCGGUAAUGGCGAAUGGGACCCA [G10A U12A] | 0.0733
GGCCGGCAUAGGCCCAGCCUCCUCGCUGGCGCCGGCUGGGCAACAUUCCGAGGGGACCGUCCCCUCGGUAAUGGCGAAUGGGACCCA [G10A U12G] | 0
GGCCGGCAUAGUCCCAGCCUCCGCGCUGGCGCCGGCUGGGCAACAUUCCGAGGGGACCGUCCCCUCGGUAAUGGCGAAUGGGACCCA [G10A U23G] | 0.181
GGCCGGCAUAGUCCCAGCCUCCACGCUGGCGCCGGCUGGGCAACAUUCCGAGGGGACCGUCCCCUCGGUAAUGGCGAAUGGGACCCA [G10A U23A] | 0.596
GGCCGGCAUAGUCCCAGCCUCCCCGCUGGCGCCGGCUGGGCAACAUUCCGAGGGGACCGUCCCCUCGGUAAUGGCGAAUGGGACCCA [G10A U23C] | 0.554
GGCCGGCAUAGUCCCAGCCUCCUCGCUGGCGCCGGCUGGGCAACAUUCCGAGCGGACCGUCCCCUCGGUAAUGGCGAAUGGGACCCA [G10A G53C] | 0.742
GGCCGGCAUAGUCCCAGCCUCCUCGCUGGCGCCGGCUGGGCAACAUUCCGAGAGGACCGUCCCCUCGGUAAUGGCGAAUGGGACCCA [G10A G53A] | 0.841
GGCCGGCAUAGUCCCAGCCUCCUCGCUGGCGCCGGCUGGGCAACAUUCCGAGUGGACCGUCCCCUCGGUAAUGGCGAAUGGGACCCA [G10A G53U] | 0.857
GGCCGGCAUAGUCCCAGCCUCCUCGCUGGCGCCGGCUGGCCAACAUUCCGAGGGGACCGUCCCCUCGGUAAUGGCGAAUGGGACCCA [G10A G40C] | 0.302
GGCCGGCAUAGUCCCAGCCUCCUCGCUGGCGCCGGCUGGGCAACAUUCCGAGGGGACCGUCCCCCCGGUAAUGGCGAAUGGGACCCA [G10A U65C] | 0.769
GGCCGGCAUAGUCCCAGCCUCCUCGCUGGCGCCGGCUGGGCAACAUUCCGAGGGAACCGUCCCCUCGGUAAUGGCGAAUGGGACCCA [G10A G55A] | 0.831
GGCCGGCAUAGUCCCAGCCUCCUCGCUGGCGCCGGCUGGGCAACAUUCCGAGGGUACCGUCCCCUCGGUAAUGGCGAAUGGGACCCA [G10A G55U] | 0.698
